Data as given in the DeepSol protein solubility set.

Test: soluble on expression in E. coli; label from the status in PepcDB or PDB records

| Sequence | soluble on expression in E. coli |
| --- | --- |
| MEKERETLQAWKERVGQELDRVMAFWLEHSHDREHGGFFTCLGRDGRVYDDLKYVWLQGRQVWMYCRLYRKLERFHRPELLDAAKAGGEFLLRHARVAPPEKKCAFVLTRDGRPVKVQRSIFSECFYTMAMNELWRVTAEARYQSEAVDMMDQIVHWVREDPSGLGRPQLPGAVASESMAVPMMLLCLVEQLGEEDEELAGRYAQLGHWCARRILQHVQRDGQAVLENVSEDGEELSGCLGRHQNPGHALEAGWFLLRHSSRSGDAKLRAHVIDTFLLLPFRSGWDADHGGLFYFQDADGLCPTQLEWAMKLWWPHSEAMIAFLMGYSESGDPALLRLFYQVAEYTFRQFRDPEYGEWFGYLNREGKVALTIKGGPFKGCFHVPRCLAMCEEMLSALLSRLA | soluble |
| MIIAREKRRNNIAEYVLYMWQIEDLIRANELDMQRLRATVIAQYRQDTETTAEIDRWYAELVEMMLTEGVREQGHINIVRIAIMQMEEIHSRLMADPKEMIYQGLYYQVLPAIVQLRAKSAGSNTGEIETCLTAIYGLLTLRLQKKEVSEETLASIKQMSTLLSVLSEKFAAREEGTDEALL | not soluble |
| MTTKDEVKTLWKLCFNDSDEFTDLYFKMRYKDEVNRVIREDGKIISALQMIPYPMTFCDEVISTSYISGACTHPDYRKHGAMKRLLKETHRCMYEDGVLLASLIPAEEWLFGYYARSGYAPVFGYAVEQVRVDRLCPAPGCRIEVCEFPGVEHYHYFDSRMHGRRSCIQHPKEDFLVIMADLRLGNGKLLVAWEADKIVGMAFTVMGDDTLYIKELLADTDAVQDTLLYEAAHIYKVQRMDYFIPSSADTLFLGMARVIRAEELLKVFAHKYPASELYIHIEGDEAIQENNGYYTVRDGFCFRERVPEKKYHTYTLDGFTRLLLEAEHPYMSLMLN | soluble |
| MAAKPGIPKGTRDFSPVEMAKRNYIFNTIRDVFHLFGYQQIETPSMENLSTLMGKYGDEGDKLLFKIQNSGDYFNGITDEELLSRNAVKLASKFCEKGLRYDLTVPFARYVVMHRDEISFPFKRYQIQPVWRADRPQKGRYREFYQCDADVVGSNSLLNEVELVQMIDRVFGKFGVRVSIKINNRKILTGIAEIIGEADKIVDITVAIDKLDKIGLENVNAELASKGIPQEAIDKLQPIILLSGSNEEKLETLKTVLATSEAGLKGVEESEFILKTVSALGVKSEVELDLTLARGLNYYTGAIFEVKALDVQIGSISGGGRYDNLTGVFGMDGMSGVGISFGADRIFDVLNQLDLYPKEAVNGTELLFVNFGDKEAAYCLPILTKVREAGVRAEIYPDASKMKKQMGYANDKQIPFVAIVGENEMNEGKLTLKNMTTGEQSLVTPDELLAVVKA | not soluble |
| AHHHHHHGSRVVKKIGLIGGMTPESTCYYYRKYIEISRKKFRKYEYPELLIYSINFRDFFMNPEGWEGRKRILINAAKALERAGAELIALTANTPHIVFDDIQKEISVPMVSIIDAVAEEILSHGLKKVLLLETKTTMSSGFYVNALKNKGLEVVVPNEEEQEELNRIIFEELAFENLKSKRWIIDLIERYAKEEGVEGVILGCTELPLAVKRGDVSIEVFDSAEIHIKKLIEVASQSI | not soluble |
| MGSDKIHHHHHHMISHKKDQAAGLRELTALEPNAGVRVFAVVGGRTGVGKTSSVINLAVALAKTGKRVLILDENPRHKDVNANLGLSARYDLLHVINQDKTLEQVMTQGPEDVLVLTAMRGIHSLAKLSSADQERLIQCFSELSQTVDVVLIDTAIGRTSRVVPLSLASQQVLIVLSASGKAITDAYALIKLISQEYARRDFLVLVNKVESESMGRDIFENIAGVAQKHLAVKLEWMGCILFDEKLQRSTRLCQPVVEIFPTSASAAGYRQLAEKLMRCAGPWTDNDGVENFMRRLIRTSHLDIADFTV | not soluble |
| MAARNAGTARPGGPNRTCQFKLVLLGESAVGKSSLVLRFVKGQFHEYQESTIGAAFLTQTVCLDDATIKFEIWDTAGQERYHSLAPMYYRGAQAAIVVYDITNQESFQKAKNWVKELQRQASPNIVMALAGNKADVANKRTVEYEEANAYAEDNALLFMETSAKTSMNVNDIFMAIAKKLPIGPAQGEPTGTVDMNQPQQQQKGSCCK | not soluble |
| QVQLQESGGGLVQAGDSLKLSCEASGDSIGTYVIGWFRQAPGKERIYLATIGRNLVGPSDFYTRYADSVKGRFAVSRDNAKNTVNLQMNSLKPEDTAVYYCAAKTTTWGGNDPNNWNYWGQGTQVTVSS | soluble |
| MSLRTLAVETSCDETALAIYDDQKGVLGNVILSQAVVHSPFGGVVPELSAREHTRNILPIFDRLLKESRINLEEIDFISFTLTPGLILSLVVGVAFAKALAYEYRKPLVPVHHLEGHIYSVFLEKKVEYPFLALIISGGHTDLYLVRDFGRYDFLGGTLDDAVGEAYDKVAKMLGLGYPGGPIIDRLAKEGKKLYPLPKPLMEEGNLNFSFSGLKTAILNLLKKEKNVRKEDIAYSFQETVVEILLEKSLWAMKKTGIKRLVVVGGVSANSRLREVFKKASQEYGFELYIPHPSLSTDNALMIAYAGMERFKRGVVAPLDVNPQPNIPLEEFGRIWTEGHHHHHH | soluble |
| MGSDKIHHHHHHLKSAEGSTWNCCPIDWRAFQSNCYFPLTDNKTWAESERNCSGMGAHLMTISTEAEQNFIIQFLDRRLSYFLGLRDENAKGQWRWVDQTPFNPRRVFWHKNEPDNSQGENCVVLVYNQDKWAWNDVPCNFEASRICKIPGTTLN | not soluble |
| GSGAVSIASSKVSAQYTSTVPPSHYIETWAKTHPEWKAVEVATGFLGSQKIVTEDWTYKKLNETANQVANLIIHASLHGRAIAVSLDRSLIAFAIIVGIMKSGNTYVPIEAGLPNDRKSFLLRDSRAAMAFVCDNNFDGVELPPETKVLDTKNQSFIENLSTQDTSDILNNYPENLDAYLLYTSGSTGTPKGVRVSRHNLSSFSDAWGKLIGNVAPKSLELGGVGKFLCLASRAFDVHIGEMFLAWRFGLCAVTGERLSMLDDLPRTFRELGVTHAGIVPSLLDQTGLVPEDAPHLVYLGVGGEKMTPRTQQIWSSSDRVALVNVYGPTEVTIGCSAGRILPDSDTRCIGHPLGDSVAHVLAPGSNEHVKKGMAGELVIEGSLVANGYLNRPDAKGFCDINGRKMYRTGDIVRMDADSSILFLGRKDEQVKVRGQRLELGEVSEVIRSLSPTDIDVVTLLLNHPGTSKQFLVSFVASSGAAVRGELRWINENYKEINNSLRQACEQTLPAYMVPDFIIPISFIPLRDTSAKTDAKALEHMFHTLSLGELFGESSSLVNKPTT | soluble |
| TVESNWGGAILIGSDFDTVSATANVPSASGGSSAAGTAWVGIDGDTCQTAILQTGFDWYGDGTYDAWYEWYPEVSDDFSGITISEGDSIQMSVTATSDTSGSATLENLTTGQKVSKSFSNESSGSLCRTNAEFIIEDFEECNSNGSDCEFVPFASFSPAVEFTDCSVTSDGESVSLDDAQITQVIINNQDVTDCSVSGTTVSCSYV | soluble |
| MGSDKIHHHHHHMMSLSNERLIHDPLEWDALVARYGLDCYYEYAYFKLAQEPEAVPEMYVHPSEFGILIYPYLKRRISGTPLQDLTTPYGYGGPVFVGLWSSDQIKDIRRHFLEYCQAERIVSETIRFHPLLENDELGRSWCETTTVLQQTVTVALSEPFEAIESQFSSMTRRNIRKAVREDVTVRVAGQEEYAKFIRLYRLTMDKHQADARYYFTDHYFRQFHDGRLPAELLVAEREGKIIAGCIVLYGQQFAHYHLGASDPAELSARPNHLLFAEMIRRAKALGKTALHLGGGTTRNEDDSLLAYKRSFSNRQTSFTLGTSVLHPLLYRQLSEQHFAHNVLSSQDWFPAYRTPVRQLSPRGEQSS | not soluble |
| MGSDKIHHHHHHMELSQNAPNELEYIREFLNTWRIPNDTREAIDLLQTEEDIKLFMKEYFHEEFPFHTIEELKSFREDIRMTIEGEGSLEKWLEKYPFHVYIKEDMKGITYEPIHEETVYTKVLSIVLIAVQENLWGRLKACPDCRWVFYDNSRNGSKRWCGMYAGEEGGRACGTIAKVKNYRAKRKGRSGYNV | not soluble |
| MGHHHHHHSHMHGWTWSVPKFMKRMKVPDYKDKAVFGVPLIVHVQRTGQPLPQSIQQALRYLRSNCLDQVGLFRKSGVKSRIHALRQMNENFPENVNYEDQSAYDVADMVKQFFRDLPEPLFTNKLSETFLHIYQYVSKEQRLQAVQAAILLLADENREVLQTLLCFLNDVVNLVEENQMTPMNLAVCLAPSLFHLNLL | not soluble |
| MTALFCLELRTNIFLIMNDCIIINYWKGFIFSFHSYFFPFRFESSLRAHYPGKRNYSDFSVIPLPYYIDVRSFHICESQHIIALPLQIPLPYRMLIRMYPV | soluble |
| MEENGMKSKILIFGGTGYIGNHMVKGSLKLGHPTYVFTRPNSSKTTLLDEFQSLGAIIVKGELDEHEKLVELMKKVDVVISALAFPQILDQFKILEAIKVAGNIKRFLPSDFGVEEDRINALPPFEALIERKRMIRRAIEEANIPYTYVSANCFASYFINYLLRPYDPKDEITVYGTGEAKFAMNYEQDIGLYTIKVATDPRALNRVVIYRPSTNIITQLELISRWEKKIGKKFKKIHVPEEEIVALTKELPEPENIPIAILHCLFIDGATMSYDFKENDVEASTLYPELKFTTIDELLDIFVHDPPPPASAAF | soluble |
| SWQTYVDTNLVGTGAVTQAAIIGHDGNTWATSAGFAVSPANGAALANAFKDATAIRSNGFELAGTRYVTIRADDRSVYGKKGSAGVITVKTSKAILIGVYNEKIQPGTAANVVEKLADYLIGQGF | soluble |
| AHHHHHHGSPTWEELYKNAIEKAIKSVPKVKGVLLGYNTNIDAIKYLDSKDLEERIIKAGKEEVIKYSEELPDKINTVSQLLGSILWSIRRGKAAELFVESCPVRFYMKRWGWNELRMGGQAGIMANLLGGVYGVPVIVHVPQLSRLQANLFLDGPIYVPTLENGEVKLIHPKEFSGDEENCIHYIYEFPRGFRVFEFEAPRENRFIGSADDYNTTLFIREEFRESFSEVIKNVQLAILSGLQALTKENYKEPFEIVKSNLEVLNEREIPVHLEFAFTPDEKVREEILNVLGMFYSVGLNEVELASIMEILGEKKLAKELLAHDPVDPIAVTEAMLKLAKKTGVKRIHFHTYGYYLALTEYKGEHVRDALLFAALAAAAKAMKGNITSLEEIREATSVPVNEKATQVEEKLRAEYGIKEGIGEVEGYQIAFIPTKIVAKPKSTVGIGDTISSSAFIGEFSFTL | not soluble |
| MGSDKIHHHHHHMVRTTKFGDLPVLHVFAASQAQTKLPTIIDYHGWTNQTATELGTAYQLVRAGFRVILPTAYLHGSRNDGTDLDRHPEHFWSIVGHSVAEFPQLVAALVAAGISDANKIGVMGTSMGGITAAGIMATQPTVVAGVSLIGSPEPVAFATDQVAQLPAALQAKLPAELIEQTYQQLAKFDLSEHPEALAGRPMFFFNGTADQMVPYQYIRDFKHRFKDEPALKATVFKRAEGGVHHVPHKIQEAAVAFLETNILK | not soluble |
| MGSDKIHHHHHHMGIKIPNMKPNYSLDDMRCFCMVAQYGSFKQAAVALQMPLSTLSRRIAKLEQDLALRLFNRDAHRVQLTFAGQRYYRRSAPIFDELDNVAACLQQDRNEAKGTIRISAPINFSVQVLVHHFNAFMRQYPDIELDLKLSNQTIDIDEEAMDLAFRIGHHSATHWIGRQLTNIRFAICGPANLDVSHIKAPADLAGLPTVLCSPMLTWSLQHIHSGEKQAYTATDNIRLKVDDMSLLTEVIAGGIGVGFIPDYHAQPLLESGKIQHILPAWSNQARGCEMLYRDRENIPYRVRLFIDFMLQRFKSNDGVM | not soluble |
